Molecular target: T1, His-tagged soluble human PCDH10 (human)
T1 construct: also called sohPCDH10; sohPCDH10-His
Test: BLI
Details: both partners purified

B1: WEEV virus-like particles (spike E2-E1) (complex)
chain 1: SITDDFTLTSPYLGFCPYCRHSAPCFSPIKIENVWDESDDGSIRIQVSAQFGYNQAGTADVTKFRYMSFDHDHDIKEDSMDKIAISTSGPCRRLGHKGYFLLAQCPPGDSVTVSITSGASENSCTVEKKIRRKFVGREEYLFPPVHGKLVKCHVYDHLKETSAGYITMHRPGPHAYKSYLEEASGEVYIKPPSGKNVTYECKCGDYSTGIVSTRTKMNGCTKAKQCIAYKSDQTKWVFNSPDLIRHTDHSVQGKLHIPFRLTPTVCPVPLAHTPTVTKWFKGITLHLTATRPTLLTTRKLGLRADATAEWITGTTSRNFSVGREGLEYVWGNHEPVRVWAQESAPGDPHGWPHEIIIHYYHRHPVYTVIVLCGVALAILVGTASSAACIAKARRDCLTPYALAPNATVPTALAVLCCIRPTNA
chain 2: FEHATTVPNVPGIPYKALVERAGYAPLNLEITVVSSELTPSTNKEYVTCRFHTVIPSPQVKCCGSLECKASSKADYTCRVFGGVYPFMWGGAQCFCDSENTQLSEAYVEFAPDCTIDHAVALKVHTAALKVGLRIVYGNTTAHLDTFVNGVTPGSSRDLKVIAGPISAAFSPFDHKVVIRKGLVYNYDFPEYGAMKPGAFGDIQASSLDATDIVARTDIRLLKPSVKNIHVPYTQAVSGYEMWKNNSGRPLQETAPFGCKIEVEPLRASNCAYGHIPISIDIPDAAFVRSSESPTILEVSCTVADCIYSADFGGSLTLQYKADREGHCPVHSHSTTAVLKEATTHVTAVGSITLHFSTSSPQANFIVSLCGKKTTCNAECKPPADHIIGEPHKVDQEFQAAVSKTSWNWLLALFGGASSLIVVGLIVLVCSSMLINTRR
  Kd: 4.66 nM
